{
  "source": "patent US8236527B2",
  "about": "“Recombinant production of authentic human proteins using human cell expression systems” (Humanzyme Limited, priority 2008, dated 2012)",
  "molecules": {"B1": {"name": "authentic human IL-23: IL-23 from engineered human HEK293 cells, disulfide-linked heterodimer of 55 kD (protein, UniProt Q9NPF7 20-189; P29460 23-328, looked up)", "Interleukin-23 subunit alpha": "RAVPGGSSPAWTQCQQLSQKLCTLAWSAHPLVGHMDLREEGDEETTNDVPHIQCGDGCDPQGLRDNSQFCLQRIHQGLIFYEKLLGSDIFTGEPSLLPDSPVGQLHASLLGLSQLLQPEGHHWETQQIPSLSPSQPWQRLLLRFKILRSLQAFVAVAARVFAHGAATLSP", "Interleukin-12 subunit beta": "IWELKKDVYVVELDWYPDAPGEMVVLTCDTPEEDGITWTLDQSSEVLGSGKTLTIQVKEFGDAGQYTCHKGGEVLSHSLLLLHKKEDGIWSTDILKDQKEPKNKTFLRCEAKNYSGRFTCWWLTTISTDLTFSVKSSRGSSDPQGVTCGAATLSAERVRGDNKEYEYSVECQEDSACPAAEESLPIEVMVDAVHKLKYENYTSSFFIRDIIKPDPPKNLQLKPLKNSRQVEVSWEYPDTWSTPHSYFSLTFCVQVQGKSKREKKDRVFTDKTSATVICRKNASISVRAQDRYYSSSWSEWASVPCS"}},
  "type_in_all_cases": "cell-based",
  "key": {"[1]": {"tested_on": "mouse splenocytes", "assay": "IL-23 activity: dose-dependent secretion of IL-17 from mouse splenocytes activated with PMA", "conditions": "10 ng/ml PMA"}, "[2]": {"tested_on": "human CD4+ T cells", "assay": "IL-23 activity: IL-17 secretion from human CD4+ T cells (ELISA)", "procedure": "(A) IL-23 activities determined by the dose-dependent secretion of IL-17 from mouse splenocytes activated with 10 ng/ml PMA. (B) IL-23 activities determined by the dose-dependent secretion of IL-17 from human CD4+ T cells stimulated with […] plate bound anti-CD3 and […] soluble anti-CD28 in the presence of Th17 polarizing cytokines.\nFIG. 22: Efficient differentiation of Th17 cells with authentic cytokines expressed in human cells. Whole CD4+ T cells isolated from a healthy donor were stimulated with 2 μg/mL plate bound anti-CD3 and 1 μg/mL soluble anti-CD28 in the presence of Th17 polarizing cytokines, including a titration of IL-23. After 5 days, supernatants were harvested for measurement of IL-17 by ELISA. See (A)-(G). FIG. 22 (H) depicts flow cytometry analysis on Human Th17 Differentiation by Authentic human TGF-β1. See Example 17 below.\nIL-17-producing CD4+ T cells (Th17 cells) have been identified as a unique subset of T helper cells that develop along a pathway that is distinct from the Th1 and Th2-cell differentiation pathways. This finding has provided exciting new insights into immunoregulation, host defense and the pathogenesis of autoimmune diseases. Recently it has been shown that TGF-β1, […], IL-6 and IL-23 are important in driving human Th17 differentiation (Chen & O'Shea (2008) Cytokines 41:71). […] The activities were further assayed with human CD4+ cells which were isolated from a healthy donor and stimulated with 10 μg/ml plate bound anti-CD3 and 10 μg/ml soluble anti-CD28 in the presence of Th17 polarizing cytokines. After 5 days supernatants were harvested for measurement of IL-17 by ELISA."}, "[3]": {"tested_on": "whole CD4+ cells from a healthy donor", "assay": "Th17 polarizing cytokines: IL-17 secretion from human CD4+ cells (ELISA)", "conditions": "compared with cytokines from insect cell or bacterial expression system, 5 days", "source_text": "IL-17-producing CD4+ T cells (Th-17 cells) have been identified as a unique subset of Th cells that develop along a pathway that is distinct from the Th1, and Th2-cell differentiation pathways. This finding has provided exciting new insights into immunoregulation, host defense and the pathogenesis of autoimmune diseases. Recently it has been shown that IL1β, IL6 and IL23 are important in driving human Th17 differentiation. However, TGF-β1, which is important for the differentiation of murine Th17 cells, is reported to be not required, and even inhibits human Th17 differentiation (McGeachy & Cua (2008) Immunity 28:445, Chen & O'Shea (2008) Cytokines 41:71). In this study, whole […] cells isolated from a healthy donor were stimulated with 10 μg/mL plate bound anti-CD3 and 10 μg/ml soluble anti-CD28 in the presence of Th17 polarizing cytokines from the inventive human cell expression system and from an insect cell or bacterial expression system. After 5 days supernatants were harvested for measurement of IL-17 by ELISA."}},
  "data": [
    {"molecule": "B1", "values": [
      {"measurement": "activity relative to insect cell IL-23, IL-17 secretion from mouse splenocytes", "setting": "[1]", "value": "ten fold more active"},
      {"measurement": "fold more potent than the cytokine produced from insect cells (FIG. 21 heading)", "setting": "[2]; assay not specified in the heading", "value": 500, "unit": "fold"},
      {"measurement": "concentration at which maximum induction of IL-17 secretion was achieved", "setting": "[2]; human CD4+ cells, 5 days", "value": 0.1, "unit": "ng/mL"},
      {"measurement": "fold more potent for inducing IL-17 secretion than insect cell IL-23", "setting": "[2]; human CD4+ cells, anti-CD3 and anti-CD28, Th17 polarizing cytokines, 5 days", "value": 100, "unit": "fold"},
      {"measurement": "induction of IL-17 secretion", "setting": "[3]", "value": "significantly more effective"}
    ]}
  ]
}
